In the RNAGym collection of RNA variant scans (doi:10.7554/elife.90254):

B1: LINE1-mini (parent)
chain: GGCAGAGCUCAACACAGCGUGGCAAAGUGGCUGUGGCUAGACUGCC

Variants of: B1
Assay: self-cleavage, relative activity (ratio to wild type); higher = more cleavage; in vitro, sequencing; the parent is a self-cleaving ribozyme

Variant | self-cleavage
GGCAGAGCUCAGCACAGCGUGGCAAAGUGGCUGUGGCCAGACUGCC [A12G U38C] | 0.04
GGCAGAGCUCAGCACAGCGUGGCAAAGUGGCUGUGGCAAGACUGCC [A12G U38A] | 0.06
GGCAGAGCUCAUCACAGCUUGGCAAAGUGGCUGUGGCUAGACUGCC [A12U G19U] | 0.19
GGCAGAGCUCAUCACAGCCUGGCAAAGUGGCUGUGGCUAGACUGCC [A12U G19C] | 0.32
GGCAGAGCUCAUCACAGCAUGGCAAAGUGGCUGUGGCUAGACUGCC [A12U G19A] | 0.42
GGCAGAGCUCAUCACGGCGUGGCAAAGUGGCUGUGGCUAGACUGCC [A12U A16G] | 0.16
GGCAGAGCUCAUCACUGCGUGGCAAAGUGGCUGUGGCUAGACUGCC [A12U A16U] | 0.07
GGCAGAGCUCAUCACCGCGUGGCAAAGUGGCUGUGGCUAGACUGCC [A12U A16C] | 0.05
GGCAGAGCUCAUCACAGCGUGGAAAAGUGGCUGUGGCUAGACUGCC [A12U C23A] | 0.27
GGCAGAGCUCAUCACAGCGUGGGAAAGUGGCUGUGGCUAGACUGCC [A12U C23G] | 0.26
GGCAGAGCUCAUCACAGCGUGGUAAAGUGGCUGUGGCUAGACUGCC [A12U C23U] | 0.34
GGCAGAGCUCAUCACAGAGUGGCAAAGUGGCUGUGGCUAGACUGCC [A12U C18A] | 0.18
GGCAGAGCUCAUCACAGGGUGGCAAAGUGGCUGUGGCUAGACUGCC [A12U C18G] | 0.17
GGCAGAGCUCAUCACAGUGUGGCAAAGUGGCUGUGGCUAGACUGCC [A12U C18U] | 0.53
GGCAGAGCUCAUCACAGCGUGGCAAAGAGGCUGUGGCUAGACUGCC [A12U U28A] | 0.2
GGCAGAGCUCAUCACAGCGUGGCAAAGCGGCUGUGGCUAGACUGCC [A12U U28C] | 0.6
GGCAGAGCUCAUCACAGCGUGGCAAAGGGGCUGUGGCUAGACUGCC [A12U U28G] | 0.12
GGCAGAGCUCAUCACAGCGUGGCAAAGUGGCUGUGGCUAGACUCCC [A12U G44C] | 0.17
GGCAGAGCUCAUCACAGCGUGGCAAAGUGGCUGUGGCUAGACUACC [A12U G44A] | 0.22

Variant | self-cleavage
GGCAGAGCUCAUCACAGCGUGGCAAAGUGGCUGUGGCUAGACUUCC [A12U G44U] | 0.11
GGCAGAGCUCAUCACAGCGUGGCAAAGUGCCUGUGGCUAGACUGCC [A12U G30C] | 0.46
GGCAGAGCUCAUCACAGCGUGGCAAAGUGUCUGUGGCUAGACUGCC [A12U G30U] | 0.58
GGCAGAGCUCAUCACAGCGUGGCAAAGUGACUGUGGCUAGACUGCC [A12U G30A] | 0.48
GGCAGAGCUCAUCACAGCGUUGCAAAGUGGCUGUGGCUAGACUGCC [A12U G21U] | 0.34
GGCAGAGCUCAUCACAGCGUCGCAAAGUGGCUGUGGCUAGACUGCC [A12U G21C] | 0.21
GGCAGAGCUCAUCACAGCGUAGCAAAGUGGCUGUGGCUAGACUGCC [A12U G21A] | 0.52
GGCAGAGCUCAUCACAGCGUGGCAAUGUGGCUGUGGCUAGACUGCC [A12U A26U] | 0.28
GGCAGAGCUCAUCACAGCGUGGCAAGGUGGCUGUGGCUAGACUGCC [A12U A26G] | 0.22
GGCAGAGCUCAUCACAGCGUGGCAACGUGGCUGUGGCUAGACUGCC [A12U A26C] | 0.16
GGCAGAGCUCAUCACAGCGUGGCAAAGUGGGUGUGGCUAGACUGCC [A12U C31G] | 0.04
GGCAGAGCUCAUCACAGCGUGGCAAAGUGGUUGUGGCUAGACUGCC [A12U C31U] | 0.09
GGCAGAGCUCAUCACAGCGUGGCAAAGUGGAUGUGGCUAGACUGCC [A12U C31A] | 0.04
GGCAGAGCUCAUCACAGCGUGGCAAAGUGGCUGUGGCUAGACUGGC [A12U C45G] | 0.08
GGCAGAGCUCAUCACAGCGUGGCAAAGUGGCUGUGGCUAGACUGAC [A12U C45A] | 0.38
GGCAGAGCUCAUCACAGCGUGGCAAAGUGGCUGUGGCUAGACUGUC [A12U C45U] | 0.27
GGCAGAGCUCAGCACAGCGUGGCAAAGUGGCUGCGGCUAGACUGCC [A12G U34C] | 0.05
GGCAGAGCUCAGCACAGCGUGGCAAAGUGGCUGAGGCUAGACUGCC [A12G U34A] | 0.03
GGCAGAGCUCAGCACAGCGUGGCAAAGUGGCUGGGGCUAGACUGCC [A12G U34G] | 0.02

Variant | self-cleavage
GGCAGAGCUCAUCACAGCGUGGCAAAGUGGCUGUGGCUAGACCGCC [A12U U43C] | 0.14
GGCAGAGCUCAUCACAGCGUGGCAAAGUGGCUGUGGCUAGACAGCC [A12U U43A] | 0.04
GGCAGAGCUCAUCACAGCGUGGCAAAGUGGCUGUGGCUACACUGCC [A12U G40C] | 0.06
GGCAGAGCUCAUCACAGCGUGGCAAAGUGGCUGUGGCUAAACUGCC [A12U G40A] | 0.21
GGCAGAGCUCAUCACAGCGUGGCAAAGUGGCUGUGGCUAUACUGCC [A12U G40U] | 0.17
GGCAGAGCUCAUCACAGCGUGGCAAAGUGGCUGUGGCGAGACUGCC [A12U U38G] | 0.02
GGCAGAGCUCAUCACAGCGUGGCAAAGUGGCUGUGGCAAGACUGCC [A12U U38A] | 0.09
GGCAGAGCUCAUCACAGCGUGGCAAAGUGGCUGUGGCCAGACUGCC [A12U U38C] | 0.14
GGCAGAGCUCAUCACAGCGAGGCAAAGUGGCUGUGGCUAGACUGCC [A12U U20A] | 0.12
GGCAGAGCUCAUCACAGCGGGGCAAAGUGGCUGUGGCUAGACUGCC [A12U U20G] | 0.09
GGCAGAGCUCAUCACAGCGCGGCAAAGUGGCUGUGGCUAGACUGCC [A12U U20C] | 0.25
GGCAGAGCUCAUCACAGCGUGGCAAAGUGGCUGUGGCUAGACUGCC [A12U] | 0.28
GGCAGAGCUCAUCACAGCGUGGCAAAUUGGCUGUGGCUAGACUGCC [A12U G27U] | 0.23
GGCAGAGCUCAUCACAGCGUGGCAAACUGGCUGUGGCUAGACUGCC [A12U G27C] | 0.22
GGCAGAGCUCAUCACAGCGUGGCAAAAUGGCUGUGGCUAGACUGCC [A12U G27A] | 0.3
GGCAGAGCUCAUCACAGCGUGGCAAAGUGGCUGUAGCUAGACUGCC [A12U G35A] | 0.19
GGCAGAGCUCAUCACAGCGUGGCAAAGUGGCUGUUGCUAGACUGCC [A12U G35U] | 0.13
GGCAGAGCUCAUCACAGCGUGGCAAAGUGGCUGUCGCUAGACUGCC [A12U G35C] | 0.05
